Measured values taken from IntAct's records for PubMed 22522702.

B1: ADP-ribosylation factor 6 (Mus musculus), P62331 (parent)
chain: MGKVLSKIFGNKEMRILMLGLDAAGKTTILYKLKLGQSVTTIPTVGFNVETVTYKNVKFNVWDVGGQDKIRPLWRHYYTGTQGLIFVVDCADRDRIDEARQELHRIINDREMRDAIILIFANKQDLPDAMKPHEIQEKLGLTRIRDRNWYVQPSCATSGDGLYEGLTWLTSNYKS
partner: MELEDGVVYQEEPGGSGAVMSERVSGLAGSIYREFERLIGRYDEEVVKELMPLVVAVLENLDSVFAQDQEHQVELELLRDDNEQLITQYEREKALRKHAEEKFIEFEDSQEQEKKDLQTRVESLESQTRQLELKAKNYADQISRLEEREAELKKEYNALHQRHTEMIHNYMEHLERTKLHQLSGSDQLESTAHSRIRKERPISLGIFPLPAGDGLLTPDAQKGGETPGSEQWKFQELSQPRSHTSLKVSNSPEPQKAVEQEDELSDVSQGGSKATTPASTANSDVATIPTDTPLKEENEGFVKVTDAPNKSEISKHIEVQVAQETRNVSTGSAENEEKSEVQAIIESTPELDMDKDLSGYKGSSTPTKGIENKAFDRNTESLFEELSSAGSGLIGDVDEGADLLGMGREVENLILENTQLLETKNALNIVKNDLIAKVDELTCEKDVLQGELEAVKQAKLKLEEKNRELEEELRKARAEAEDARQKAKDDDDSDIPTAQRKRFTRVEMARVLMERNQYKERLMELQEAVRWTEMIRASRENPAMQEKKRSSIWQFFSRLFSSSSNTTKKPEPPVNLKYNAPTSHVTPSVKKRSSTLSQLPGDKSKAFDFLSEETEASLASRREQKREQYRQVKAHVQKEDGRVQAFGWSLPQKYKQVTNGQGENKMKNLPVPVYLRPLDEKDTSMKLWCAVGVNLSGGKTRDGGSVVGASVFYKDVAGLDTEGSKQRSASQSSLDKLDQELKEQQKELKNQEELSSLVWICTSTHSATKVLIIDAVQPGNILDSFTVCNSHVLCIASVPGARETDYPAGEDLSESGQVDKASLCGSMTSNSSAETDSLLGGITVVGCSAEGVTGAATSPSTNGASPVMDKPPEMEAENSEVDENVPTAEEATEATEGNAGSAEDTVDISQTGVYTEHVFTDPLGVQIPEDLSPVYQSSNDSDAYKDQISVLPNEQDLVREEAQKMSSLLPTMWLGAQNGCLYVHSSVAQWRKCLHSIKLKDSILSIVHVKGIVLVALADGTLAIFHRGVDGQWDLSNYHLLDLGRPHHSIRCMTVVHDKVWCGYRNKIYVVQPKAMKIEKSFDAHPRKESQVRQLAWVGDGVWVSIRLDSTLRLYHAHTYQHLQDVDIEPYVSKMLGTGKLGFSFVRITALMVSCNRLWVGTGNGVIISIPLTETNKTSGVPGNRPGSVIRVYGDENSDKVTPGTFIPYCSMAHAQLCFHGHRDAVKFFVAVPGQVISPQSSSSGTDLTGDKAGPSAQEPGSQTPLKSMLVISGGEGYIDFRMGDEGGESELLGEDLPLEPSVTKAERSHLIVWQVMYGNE
B2: ADP-ribosylation factor 6 (Mus musculus), P62331 (parent)
chain: B1 chain
partner: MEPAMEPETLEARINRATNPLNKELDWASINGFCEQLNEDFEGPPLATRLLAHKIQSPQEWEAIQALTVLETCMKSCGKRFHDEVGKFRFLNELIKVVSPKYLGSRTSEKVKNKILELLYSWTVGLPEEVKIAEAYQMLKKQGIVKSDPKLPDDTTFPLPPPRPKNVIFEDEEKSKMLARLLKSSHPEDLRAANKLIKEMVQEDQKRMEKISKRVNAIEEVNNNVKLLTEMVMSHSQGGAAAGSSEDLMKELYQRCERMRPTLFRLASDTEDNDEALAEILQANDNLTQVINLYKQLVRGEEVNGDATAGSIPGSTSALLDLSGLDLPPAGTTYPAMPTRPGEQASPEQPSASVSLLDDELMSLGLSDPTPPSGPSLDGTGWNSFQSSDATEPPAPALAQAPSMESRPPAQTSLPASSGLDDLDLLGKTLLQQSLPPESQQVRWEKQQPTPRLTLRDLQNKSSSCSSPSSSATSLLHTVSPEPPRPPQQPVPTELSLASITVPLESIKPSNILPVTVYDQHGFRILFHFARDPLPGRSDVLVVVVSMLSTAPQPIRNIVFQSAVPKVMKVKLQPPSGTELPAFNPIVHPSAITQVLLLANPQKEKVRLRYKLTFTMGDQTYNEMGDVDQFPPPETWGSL
B3: ADP-ribosylation factor 6 (Mus musculus), P62331 (parent)
chain: B1 chain
partner: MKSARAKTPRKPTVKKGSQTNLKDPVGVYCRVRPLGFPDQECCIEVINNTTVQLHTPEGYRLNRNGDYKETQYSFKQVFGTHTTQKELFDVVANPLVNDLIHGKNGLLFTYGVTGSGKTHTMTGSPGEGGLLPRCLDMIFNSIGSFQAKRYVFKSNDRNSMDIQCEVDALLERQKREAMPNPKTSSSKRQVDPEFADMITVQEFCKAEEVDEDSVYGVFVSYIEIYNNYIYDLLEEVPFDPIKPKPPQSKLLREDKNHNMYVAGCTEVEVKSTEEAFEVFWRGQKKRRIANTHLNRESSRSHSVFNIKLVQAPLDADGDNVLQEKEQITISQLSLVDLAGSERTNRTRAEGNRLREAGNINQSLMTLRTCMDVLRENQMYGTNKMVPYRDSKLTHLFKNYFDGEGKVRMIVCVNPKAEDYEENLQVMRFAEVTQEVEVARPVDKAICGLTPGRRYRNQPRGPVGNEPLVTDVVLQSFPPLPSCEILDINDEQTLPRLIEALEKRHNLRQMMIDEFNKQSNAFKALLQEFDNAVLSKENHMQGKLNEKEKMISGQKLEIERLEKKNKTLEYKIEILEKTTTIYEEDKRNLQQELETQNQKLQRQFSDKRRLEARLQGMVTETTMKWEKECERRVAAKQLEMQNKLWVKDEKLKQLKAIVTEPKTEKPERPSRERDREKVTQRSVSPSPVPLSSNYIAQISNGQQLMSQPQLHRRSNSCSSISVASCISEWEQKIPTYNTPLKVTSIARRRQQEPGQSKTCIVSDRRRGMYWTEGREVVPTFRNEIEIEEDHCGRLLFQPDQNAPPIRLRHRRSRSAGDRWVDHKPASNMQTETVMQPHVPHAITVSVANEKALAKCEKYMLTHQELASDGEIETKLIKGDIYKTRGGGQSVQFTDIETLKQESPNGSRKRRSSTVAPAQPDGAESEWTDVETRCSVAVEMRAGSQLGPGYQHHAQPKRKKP
B4: ADP-ribosylation factor 6 (Mus musculus), P62331 (parent)
chain: B1 chain
partner: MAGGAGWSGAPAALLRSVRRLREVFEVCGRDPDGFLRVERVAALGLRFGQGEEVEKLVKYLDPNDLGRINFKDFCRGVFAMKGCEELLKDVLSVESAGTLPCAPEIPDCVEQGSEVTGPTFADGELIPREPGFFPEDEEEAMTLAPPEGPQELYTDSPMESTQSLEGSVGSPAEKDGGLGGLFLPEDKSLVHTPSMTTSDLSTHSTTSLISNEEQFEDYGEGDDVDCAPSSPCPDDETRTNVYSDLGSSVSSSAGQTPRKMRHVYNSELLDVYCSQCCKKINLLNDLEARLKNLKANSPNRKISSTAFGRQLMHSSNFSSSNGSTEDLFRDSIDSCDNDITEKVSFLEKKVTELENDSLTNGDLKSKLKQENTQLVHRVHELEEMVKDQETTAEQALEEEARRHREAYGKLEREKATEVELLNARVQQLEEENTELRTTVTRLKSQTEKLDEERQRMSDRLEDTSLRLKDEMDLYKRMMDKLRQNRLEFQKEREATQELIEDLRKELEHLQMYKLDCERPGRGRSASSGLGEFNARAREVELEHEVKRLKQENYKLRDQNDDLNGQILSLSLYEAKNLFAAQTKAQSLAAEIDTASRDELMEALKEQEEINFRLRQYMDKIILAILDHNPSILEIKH

Variants of: B1
Conditions: with jip4_human SPAG9, O60271

| effect of a mutation on the interaction | Variant |
| --- | --- |
| disrupting interaction | Q67L |
| disrupting interaction | Y77A |

Variants of: B1
Conditions: with jip4_human SPAG9, O60271
Remark: another data set of the same source

| effect of a mutation on the interaction | Variant |
| --- | --- |
| disrupting interaction | H76A |

Variants of: B2
Conditions: with gga1_human GGA1, Q9UJY5

| effect of a mutation on the interaction | Variant |
| --- | --- |
| disrupting interaction | H76A |

Variants of: B2
Conditions: with gga1_human GGA1, Q9UJY5
Remark: another data set of the same source

| effect of a mutation on the interaction | Variant |
| --- | --- |
| disrupting interaction | Y77A |
| disrupting interaction | Q67L |

Variants of: B3
Conditions: with kif23_human KIF23, Q02241

| effect of a mutation on the interaction | Variant |
| --- | --- |
| decreasing interaction | T27N |

Variants of: B3
Conditions: with kif23_human KIF23, Q02241
Remark: another data set of the same source

| effect of a mutation on the interaction | Variant |
| --- | --- |
| increasing interaction | Q67L |

Variants of: B3
Conditions: with kif23_human KIF23, Q02241
Remark: another data set of the same source

| effect of a mutation on the interaction | Variant |
| --- | --- |
| disrupting interaction | Q67L |
| disrupting interaction | Y77A |

Variants of: B3
Conditions: with kif23_human KIF23, Q02241
Remark: another data set of the same source

| effect of a mutation on the interaction | Variant |
| --- | --- |
| decreasing interaction | Q67L |
| decreasing interaction | H76A |

Variants of: B4
Conditions: with rfip4_human RAB11FIP4, Q86YS3

| effect of a mutation on the interaction | Variant |
| --- | --- |
| disrupting interaction | Y77A |

Variants of: B4
Conditions: with rfip4_human RAB11FIP4, Q86YS3
Remark: another data set of the same source

| effect of a mutation on the interaction | Variant |
| --- | --- |
| disrupting interaction | Q67L |
| disrupting interaction | H76A |
